Source: patent publication US20130156779A1 (GlaxoSmithKline, published 2013)
Like-named read-outs stand apart in the source and are kept apart here.

Legend:
Human HER3 receptor [1] = biological target: T1, Human HER3 receptor (human, UniProt P21860 20-1342); assay: cell-based or functional assay
Human HER3 receptor [2] = biological target: T1, Human HER3 receptor; assay: cell-based or functional assay; remark: listed apart in the source
Human HER3 ECD domain II [3] = biological target: T2, Human HER3 ECD domain II (human, UniProt P21860 184-329); assay: DELFIA, plate coated with HER3 Domain II 1ug/ml
T2 construct: also called D2; Domain 2
Protocol: (§1) Dissociation Enhanced Lanthanide Fluorescence Immunoassay (DELFIA) for detection of the anti-HER3 antibodies to HER3 extracellular domain (ECD) was used. The DELFIA procedures were as follows: white Maxisorp 96-well plates (Nunc #437796) were coated with 100 ul/well of 1 ug/ml HER-3 ECD full length or HER3Domain I, II, III and IV in 0.1M carbonate buffer pH 9.5 overnight at 4° C. These plates were blocked with casein in TBS (Thermo Scientific #37532 lot#JD121074). The neat hybridoma supernatant, or the purified anti-HER3 antibodies diluted in Perkin Elmer #4002-0010 Assay Buffer from 10 ug/ml (or 100 ug/ml) to 0.01 ug/ml, or the PK serum samples with a minimum of 3 dilutions (100 ul/well) were added to the plate. These samples were incubated for 2 hours at room temperature while on a plate shaker or overnight at 4° C. […] The plate was washed 4 times with tris-buffer plus 0.05% tween-20 (Perkin Elmer #4010-0010) on a BIOTEK™ plate washer following each antibody incubation step. 100 ul/well of DELFIA enhancement solution (Perkin Elmer 1244-105) was added for 5 minutes at room temperature. […] Antibody binding was recorded as europium counts per well.

[4] = biological target: T3, Full-length human HER3 extracellular domain (ECD) (human, UniProt P21860 20-643); assay: BIACORE SPR, mAb captured on protein A, ECD as analyte, 25 C
T3 construct: also called human HER3 ECD; HER-3 ECD full length
Protocol: (§2) Protein A was immobilised on a CM5 chip by primary amine coupling to a level of ˜1300 resonance units (RU′s), humanized antibodies were then captured on this chip, All antibodies were captured to a similar level (100-200 RU's). […] Alternatively, the full-length, rat HER3 ECD or the full-length cynomolgus monkey ECD were passed over the chip at 10 nM, 5 nM, 2.5 nM, 1:25nM, 0.625 nM and 0.3125nM. An injection of buffer alone was used to double reference the binding curves as indicated in Example 1. Regeneration of this surface was achieved using 10 mM Glycine buffer pH 1.5. The binding data was fitted to the 1:1 model using BIACORE™ Evaluation software. Runs were carried out at 25° C. on a BIACORE™ T3000 using HBS-EP as running buffer.

[5] = biological target: T4, Full-length rat HER3 extracellular domain (ECD) (rat, UniProt Q62799 20-643); assay: as above
T4 construct: extracellular domain; also called Rat HER3 ECD
Protocol: as §2

[6] = biological target: T3, Full-length human HER3 extracellular …; assay: DELFIA (europium time-resolved fluorescence), plate coated with HER3 ECD Full Length 1ug/ml, antibody titrated 0.001-10 ug/ml
Protocol: as §1

Human HER3 ECD domain II [7] = biological target: T2, Human HER3 ECD domain II; assay: DELFIA, plate coated with HER3 Domain II 1ug/ml; remark: listed apart in the source
[8] = biological target: T3, Full-length human HER3 extracellular …; assay: DELFIA (europium time-resolved fluorescence), plate coated with HER3 ECD Full Length 1ug/ml, antibody titrated 0.001-10 ug/ml; remark: listed apart in the source
Human HER3 receptor [9] = biological target: T1, Human HER3 receptor; assay: cell-based or functional assay; remark: listed apart in the source
Human HER3 receptor [10] = biological target: T1, Human HER3 receptor; assay: cell-based or functional assay; remark: listed apart in the source
[11] = biological target: T3, Full-length human HER3 extracellular …; assay: affinity summary table, method not given
[12] = biological target: T5, Human HER3 ECD domain III (human, UniProt P21860 330-495); assay: affinity summary table, method not given
T5 construct: also called D3; Domain 3

[13] = biological target: T3, Full-length human HER3 extracellular …; assay: BIACORE 2000 SPR, mAb captured, HER3 protein as analyte, 25 C
Protocol: (§3) Mouse monoclonal antibodies were analysed using rabbit anti-mouse (RAM) IgG (GE Healthcare BR-1008-38) covalently coupled to a BIACORE™ CM5 chip (GE HEalthcare BR-1000-14) by primary amine chemistry (NHS/EDC activated) (GE Healthcare amine coupling kit BR-1000-50). Chimeric and humanized competitor monoclonal antibodies were analyzed using anti-human, Fc specific monoclonal (GE Healthcare BR-1008-39) similarly coupled. Each chip was also prepared with a reference surface to which no capture reagent antibody is coupled. Sensorgrams for cycles run with differing analyte concentrations are acquired for kinetic analysis. A cycle consists of capturing the monoclonal on the surface, a short stabilization period with flowing run buffer followed by binding of a defined concentration of analyte (ECD or sub-domain protein). Injection of analyte for surface binding (3-4 minutes) yields the association part of curve. This is followed by buffer only flow (3-4 minutes) which allows recording of dissociation data.
(§4) The general method for affinity analysis is as follows. First, chips were prepared and tested for reasonance units (RU) captured for several monoclonal antibody concentrations. Kinetic cycles were then run in which monoclonal antibody was captured to a level of approximately 100RU, analyte protein was allowed to bind then dissociate and the surface was regenerated to remove all but covalently coupled protein. RAM chips were regenerated with capture kit supplied 100 mM glycine pH1.7 and anti-human chips with capture kit supplied 3M MgCl₂. […] Several buffer cycles were run prior to analyte protein to ensure cycle consistency and in some experiments a buffer cycle is used a “double reference[.]” Analytes used were human full length HER3 extra cellular domain (ECD), separate sub-domains of the extracellular portion of human HER3 (D1, D2, D3, D4), or combination HER3 domain proteins (D1-2 and D2-3).

[14] = biological target: T5, Human HER3 ECD domain III; assay: as above
Protocol: as §3, §4

[15] = biological target: T6, Human HER3 ECD domain 2-3 protein (human, UniProt P21860 184-495); assay: as above
T6 construct: also called D2-3; sub-domains 2-3
Protocol: as §3, §4

[16] = biological target: T7, Murine HER3 on B16 and B16F10 melanoma cells (murine, UniProt Q61526 20-1339); assay: flow cytometry on B16F10 murine melanoma cells, antibody labelled with a Zenon APC kit [a]
T7 construct: whole, on cells
Excerpt: B16F10 ZENON™ labeling kits: [0530] Mouse IgG1 PE—Invitrogen Z25021 [0531] Mouse IgG1 APC—Invitrogen Z25051 [0532] Mouse IgG2b APC—Invitrogen Z25151 Method: Commercially available anti-human EGFR and HER2 antibodies were provided. A commercially available HER3 antibody represented by the provider to recognizes human HER3 was provided. The murine 15D5 antibody, murine 1D9 antibody (M5.1D9.1F5), murine 24H5 antibody (M5.24H5.C2) antibodies were also provided. These antibodies were labeled with either PE or APC using the ZENON™ labeling kits (Invitrogen). 5×10⁶ B 16, or B16F10, murine melanoma cells were added to flow cytometry tubes containing the labeled anti-HER3 antibodies. Cells and antibodies were incubated for 30 minutes on ice in the dark, washed and resuspended in FACS buffer. Cells were then analyzed on a FACSCANTO™ flow cytometer. Data analysis was performed using […]™ software, developed by BD Biosciences. Cell populations were gated using forward vs. side scatter and histograms of fluorescent intensities were generated.

T2 sequence (P21860 184-329): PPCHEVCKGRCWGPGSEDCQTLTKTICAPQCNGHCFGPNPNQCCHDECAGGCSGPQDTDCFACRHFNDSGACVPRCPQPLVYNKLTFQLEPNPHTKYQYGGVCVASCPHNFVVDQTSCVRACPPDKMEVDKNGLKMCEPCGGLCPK
T4 sequence (Q62799 20-643): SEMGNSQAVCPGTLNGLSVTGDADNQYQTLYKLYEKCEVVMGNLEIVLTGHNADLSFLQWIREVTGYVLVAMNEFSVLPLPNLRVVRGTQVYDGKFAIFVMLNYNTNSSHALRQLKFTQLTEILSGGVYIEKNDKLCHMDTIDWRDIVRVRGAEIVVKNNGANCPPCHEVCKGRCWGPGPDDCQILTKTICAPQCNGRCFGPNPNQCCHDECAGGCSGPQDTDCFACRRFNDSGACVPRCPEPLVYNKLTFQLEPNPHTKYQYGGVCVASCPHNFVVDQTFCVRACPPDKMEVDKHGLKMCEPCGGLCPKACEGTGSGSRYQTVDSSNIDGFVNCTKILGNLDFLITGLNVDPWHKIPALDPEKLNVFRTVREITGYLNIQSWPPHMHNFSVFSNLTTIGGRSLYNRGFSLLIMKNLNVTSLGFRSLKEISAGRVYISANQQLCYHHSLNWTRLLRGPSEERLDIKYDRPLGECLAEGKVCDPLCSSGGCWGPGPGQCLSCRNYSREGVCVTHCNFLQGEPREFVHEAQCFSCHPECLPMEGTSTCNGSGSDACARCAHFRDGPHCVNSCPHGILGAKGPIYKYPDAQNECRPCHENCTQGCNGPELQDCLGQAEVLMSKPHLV
T3 sequence (P21860 20-643): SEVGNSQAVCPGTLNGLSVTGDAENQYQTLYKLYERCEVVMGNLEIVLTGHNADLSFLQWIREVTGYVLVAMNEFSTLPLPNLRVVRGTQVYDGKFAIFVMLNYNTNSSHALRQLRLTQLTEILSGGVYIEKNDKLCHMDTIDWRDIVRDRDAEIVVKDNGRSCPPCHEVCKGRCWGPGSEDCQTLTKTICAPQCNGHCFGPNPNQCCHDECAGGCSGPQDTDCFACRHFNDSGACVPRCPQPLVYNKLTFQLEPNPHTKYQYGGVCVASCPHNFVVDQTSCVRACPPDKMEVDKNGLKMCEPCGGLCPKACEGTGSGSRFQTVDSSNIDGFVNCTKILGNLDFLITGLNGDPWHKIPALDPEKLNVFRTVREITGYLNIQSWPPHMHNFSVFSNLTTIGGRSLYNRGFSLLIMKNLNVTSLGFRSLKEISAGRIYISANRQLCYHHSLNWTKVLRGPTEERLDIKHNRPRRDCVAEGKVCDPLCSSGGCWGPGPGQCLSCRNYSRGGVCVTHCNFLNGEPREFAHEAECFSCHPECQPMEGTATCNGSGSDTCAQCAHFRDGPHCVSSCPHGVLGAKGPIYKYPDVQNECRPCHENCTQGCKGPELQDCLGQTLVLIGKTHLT
T1 sequence (P21860 20-1342 limits assumed): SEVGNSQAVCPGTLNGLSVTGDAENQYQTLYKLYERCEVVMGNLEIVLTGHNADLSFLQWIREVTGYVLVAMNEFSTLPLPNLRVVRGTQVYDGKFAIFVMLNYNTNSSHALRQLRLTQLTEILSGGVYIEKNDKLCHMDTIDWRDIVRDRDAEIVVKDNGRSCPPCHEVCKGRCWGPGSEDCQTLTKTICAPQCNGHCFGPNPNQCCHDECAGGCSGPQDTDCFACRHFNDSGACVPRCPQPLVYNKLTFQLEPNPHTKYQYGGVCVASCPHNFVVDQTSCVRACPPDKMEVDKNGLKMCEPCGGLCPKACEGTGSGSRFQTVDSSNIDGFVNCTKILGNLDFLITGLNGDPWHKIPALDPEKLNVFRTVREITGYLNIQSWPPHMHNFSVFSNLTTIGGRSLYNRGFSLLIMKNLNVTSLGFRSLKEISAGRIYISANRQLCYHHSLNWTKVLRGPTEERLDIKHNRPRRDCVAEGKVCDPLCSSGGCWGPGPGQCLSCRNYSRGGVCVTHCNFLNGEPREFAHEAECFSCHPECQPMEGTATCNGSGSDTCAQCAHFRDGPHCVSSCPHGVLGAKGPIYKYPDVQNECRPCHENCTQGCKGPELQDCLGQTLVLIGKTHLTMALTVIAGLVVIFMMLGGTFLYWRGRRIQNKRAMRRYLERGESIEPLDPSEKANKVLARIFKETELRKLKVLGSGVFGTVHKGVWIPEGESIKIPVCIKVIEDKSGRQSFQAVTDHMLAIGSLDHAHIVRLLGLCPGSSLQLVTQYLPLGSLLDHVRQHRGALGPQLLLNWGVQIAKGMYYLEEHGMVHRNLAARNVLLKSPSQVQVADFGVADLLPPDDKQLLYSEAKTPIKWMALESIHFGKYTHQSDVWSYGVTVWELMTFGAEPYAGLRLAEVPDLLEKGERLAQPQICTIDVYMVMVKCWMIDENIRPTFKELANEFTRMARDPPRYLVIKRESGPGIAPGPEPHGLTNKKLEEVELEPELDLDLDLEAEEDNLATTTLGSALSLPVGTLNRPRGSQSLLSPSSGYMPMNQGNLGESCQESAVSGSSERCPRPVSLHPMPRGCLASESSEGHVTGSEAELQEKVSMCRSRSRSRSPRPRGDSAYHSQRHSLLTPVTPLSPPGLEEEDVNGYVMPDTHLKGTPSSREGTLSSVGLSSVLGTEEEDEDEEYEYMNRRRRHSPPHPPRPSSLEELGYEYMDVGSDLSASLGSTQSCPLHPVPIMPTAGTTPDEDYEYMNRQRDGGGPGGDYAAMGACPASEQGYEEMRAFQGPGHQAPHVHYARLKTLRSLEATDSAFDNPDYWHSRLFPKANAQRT
T5 sequence (P21860 330-495): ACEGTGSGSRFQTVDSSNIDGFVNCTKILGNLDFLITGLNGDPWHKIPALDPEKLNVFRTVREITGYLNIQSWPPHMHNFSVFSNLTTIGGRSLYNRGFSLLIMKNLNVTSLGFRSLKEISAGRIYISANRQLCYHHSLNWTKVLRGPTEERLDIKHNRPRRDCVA
T6 sequence (P21860 184-495): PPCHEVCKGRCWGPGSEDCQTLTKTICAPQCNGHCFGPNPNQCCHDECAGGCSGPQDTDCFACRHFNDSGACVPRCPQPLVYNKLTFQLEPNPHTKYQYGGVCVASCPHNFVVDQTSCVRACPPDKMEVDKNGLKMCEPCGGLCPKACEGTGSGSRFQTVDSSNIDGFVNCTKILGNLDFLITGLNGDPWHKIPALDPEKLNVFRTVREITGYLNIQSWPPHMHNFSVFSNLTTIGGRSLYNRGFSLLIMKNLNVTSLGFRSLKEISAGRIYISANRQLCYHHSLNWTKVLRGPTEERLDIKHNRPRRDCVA
T7 sequence (Q61526 20-1339, one chain of several): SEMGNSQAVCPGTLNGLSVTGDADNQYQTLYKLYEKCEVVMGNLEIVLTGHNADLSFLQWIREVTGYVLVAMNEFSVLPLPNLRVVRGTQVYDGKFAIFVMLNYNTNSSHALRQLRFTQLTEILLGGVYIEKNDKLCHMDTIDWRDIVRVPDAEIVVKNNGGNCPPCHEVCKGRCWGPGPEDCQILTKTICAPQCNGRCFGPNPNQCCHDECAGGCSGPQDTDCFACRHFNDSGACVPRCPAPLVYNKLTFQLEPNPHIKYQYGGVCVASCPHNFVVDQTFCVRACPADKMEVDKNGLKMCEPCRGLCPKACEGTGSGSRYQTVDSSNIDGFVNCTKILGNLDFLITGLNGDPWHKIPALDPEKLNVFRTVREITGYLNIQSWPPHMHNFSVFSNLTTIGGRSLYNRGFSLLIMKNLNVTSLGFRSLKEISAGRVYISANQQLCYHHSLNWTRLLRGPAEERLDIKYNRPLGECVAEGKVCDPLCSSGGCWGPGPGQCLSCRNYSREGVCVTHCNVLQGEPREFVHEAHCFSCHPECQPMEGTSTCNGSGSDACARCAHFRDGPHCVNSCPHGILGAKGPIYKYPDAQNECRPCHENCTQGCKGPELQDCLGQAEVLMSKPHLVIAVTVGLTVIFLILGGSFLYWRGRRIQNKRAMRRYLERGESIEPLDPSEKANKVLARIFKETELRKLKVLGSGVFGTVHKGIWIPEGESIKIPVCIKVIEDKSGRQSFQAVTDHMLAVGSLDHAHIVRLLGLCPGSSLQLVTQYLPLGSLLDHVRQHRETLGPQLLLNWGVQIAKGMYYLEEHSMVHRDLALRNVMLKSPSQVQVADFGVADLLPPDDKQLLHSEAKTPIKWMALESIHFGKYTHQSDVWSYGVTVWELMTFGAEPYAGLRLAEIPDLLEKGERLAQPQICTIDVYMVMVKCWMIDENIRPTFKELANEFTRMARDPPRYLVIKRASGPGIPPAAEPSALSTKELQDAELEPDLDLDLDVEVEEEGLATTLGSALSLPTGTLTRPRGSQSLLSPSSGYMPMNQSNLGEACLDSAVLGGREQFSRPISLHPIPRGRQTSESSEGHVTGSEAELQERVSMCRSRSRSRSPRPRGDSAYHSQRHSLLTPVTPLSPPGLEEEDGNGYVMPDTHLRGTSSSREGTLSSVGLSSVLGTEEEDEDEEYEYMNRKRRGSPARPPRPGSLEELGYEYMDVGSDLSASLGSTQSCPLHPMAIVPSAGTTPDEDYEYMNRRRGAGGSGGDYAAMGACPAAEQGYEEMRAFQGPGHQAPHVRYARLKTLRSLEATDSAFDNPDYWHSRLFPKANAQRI

Phospho-HER3 ELISA IC50, heregulin induced, BxPC3 cells (Human HER3 receptor [1]) [µg/mL]	Phospho-HER3 ELISA IC50, heregulin induced, CHL-1 cells (Human HER3 receptor [1]) [µg/mL]	Phospho-HER3 ELISA IC50, heregulin induced, N87 cells (Human HER3 receptor [1]) [µg/mL]	Phospho-HER3 ELISA IC50, heregulin induced, SK-BR-3 cells (Human HER3 receptor [1]) [µg/mL]	Phospho-AKT ELISA IC50, heregulin induced, BxPC3 cells (Human HER3 receptor [2]) [µg/mL]	binding result (Human HER3 ECD domain II [3])	Kd [4] [nM]	koff [4] [s⁻¹]	kon [4] [M⁻¹ s⁻¹]	Binder	further results
0.0056	0.0282	0.0175	0.0034	0.0228	no binding (tested: 10 ug/ml)	2.01	0.00223	1.11e+06	Humanized 1D9 POTELLIGENT™ antibody (antibody, human IgG1, kappa, non-fucosylated glycans on the marked N* residue, Same chains as the humanized 1D9 antibody, expressed in FUT8- cells; also called humanized 1D9 H6L2 POTELLIGENT antibody) heavy: not shown light: DIQMTQSPSSLSASVGDRVTITCRSSQSIVHSSGNTYLQWFQQKPGKAPKLLIYKVSNRFSGVPSRFSGSGSGTDFTLTISSLQPEDFAVYYCFQGSHVPWTFGQGTKLEIKRTVAAPSVFIFPPSDEQLKSGTASVVCLLNNFYPREAKVQWKVDNALQSGNSQESVTEQDSKDSTYSLSSTLTLSKADYEKHKVYACEVTHQGLSSPVTKSFNRGEC	Kd [5]: 3.37 nM; koff [5]: 0.0011 s⁻¹; kon [5]: 326000 M⁻¹ s⁻¹; EC50 (read off the curve) [6]: ~0.03 µg/mL
0.0116	0.0365	0.0218	0.0036	0.0244		4.5	0.00184	410000	Humanized 1D9 antibody (antibody, human IgG1, kappa, Expressed in FUT8+ cells; also called HZ1D9; H6L2) heavy: not shown light: DIQMTQSPSSLSASVGDRVTITCRSSQSIVHSSGNTYLQWFQQKPGKAPKLLIYKVSNRFSGVPSRFSGSGSGTDFTLTISSLQPEDFAVYYCFQGSHVPWTFGQGTKLEIKRTVAAPSVFIFPPSDEQLKSGTASVVCLLNNFYPREAKVQWKVDNALQSGNSQESVTEQDSKDSTYSLSSTLTLSKADYEKHKVYACEVTHQGLSSPVTKSFNRGEC	binding result (Human HER3 ECD domain II [7]): no binding (tested: 10 ug/ml); EC50 (read off the curve) [8]: ~0.04 µg/mL
0.0068	0.0406	0.0204	0.0032	0.0151	no binding (tested: 10 ug/ml)				Murine 1D9 antibody (M5.1D9.1F5) (antibody, IgG2b, V domains shown, Mouse monoclonal, IgG2b; also called m1D9) VH: QVQLQQPGAELVRPGTSVKLSCKASGYTFTSYWMHWVKQRPGQGLEWIGVIDPSDGYSHYNQKFKGKATLTVDTSSSTAYMQLSSLTSEDSAVYYCAGGLAGTLDYWGQGTTLTVSS VL: DVLMTQTPLSLPVSLGDQASISCRSSQSIVHSSGNTYLQWFLQKPGQSPKLLISKVSNRFSGVPDRFSGSGSGTDFTLRISRVEAEDLGLYYCFQGSHVPWTFGGGTKLEIK	Phospho-HER3 ELISA IC50, heregulin induced, BT-474 cells (Human HER3 receptor [1]): 0.0223 µg/mL; Phospho-HER3 ELISA IC50, heregulin induced, MCF7 cells (Human HER3 receptor [1]): 0.0104 µg/mL; Phospho-HER3 ELISA IC50, betacellulin induced, SK-BR-3 cells (Human HER3 receptor [9]): 0.0036 µg/mL; Phospho-HER3 ELISA IC50, epidermal growth factor induced, SK-BR-3 cells (Human HER3 receptor [9]): 0.003 µg/mL; Phospho-HER3 ELISA IC50, heregulin induced, SK-BR-3 cells (Human HER3 receptor [9]): 0.0032 µg/mL; Phospho-HER3 … IC50, heregulin induced, CHO EGFR + HER3 (Human HER3 receptor [10]): 0.0435 µg/mL; Phospho-HER3 … IC50, heregulin induced, CHO HER4 + HER3 (Human HER3 receptor [10]): 0.13 µg/mL; Kd [11]: ~1 nM; Kd [12]: 0.39 nM; Kd [13]: 0.82 nM; kon [13]: 355000 M⁻¹ s⁻¹; Kd [14]: 0.38 nM; kon [14]: 2.54e+06 M⁻¹ s⁻¹; Kd [15]: 0.47 nM; kon [15]: 893000 M⁻¹ s⁻¹; binding result [16]: binds
